Assay results: patent publication US6328728A, “Composition and method for enhancing electrotransport agent delivery” (Alza Corporation, priority 1997, dated 2001)

Test: Measurement of circular dichroism (mean residue ellipticity at 222 nm)
Assay type: physicochemical
Details: for Ellipticity (mean residue at 222 nm) / Ellipticity (mean residue) (222 nm), raw / Ellipticity (mean residue) (222 nm), raw value: 32° C.
Source text: In general, the structure of a polypeptide in an aqueous buffered solution is in constant flux between portions thereof being random coil and alpha-helix configurations. For the polypeptides used in the following examples, the predominant structure is a random coil since the alpha-helix configuration is unstable in the absence of bound surfactant. According to the present invention adding surfactant to an aqueous solution of a polypeptide stabilizes the alpha-helix configuration. Circular dichroism is a measurement of the amount of the alpha-helix configured polypeptide present in the solution. Thus, circular dichroism provides an indirect measurement of the degree of binding of the surfactant to the polypeptide. (See, for example, Epand R. M., Epand R. F., Orlowski R. C., Schuleter R. J., Boni L. T. and Hui S. W., Biochemistry 22, 5074-5084 (1983); Hui, S. W., Epand R. M., Dell K. R., Epand R. F. and Orlowski R. C., Biochimica Biophysica Acta 772, 264-272 (1984); Epand R. M., Epand R. F., and Orlowski R. C., International Journal Peptide Protein Research 25 105-111; Epand R. M., Epand R. F., Orlowski R. C., Seyler J. K. and Colescott R. L., Biochemistry 25, 1964-1968; Epand R. M., Seyler J. K. and Orlowski R. C., European Journal Biochemistry 159, 125-127 (1986); Wiersema P. H., Loeb A. L. and Overbeek, J., Colloid Interface Science 22, 78-99 (1966)).
The surfactant/peptide circular dichroism (CD) spectra were obtained in a 2 mm path-length cell (110-Q-2 Model, AVIV, Lakewood, N.J.) at 32° C. The cell was initially loaded with 0.60 mL of a solution containing about 0.25 mg/mL of the peptide in 10 mM sodium chloroacetate (pH 3.5) or 10 mM sodium borate (pH 9.0). The buffers were selected to minimize the effect of the temperature on the pH of the solution and to minimize light absorption, thereby optimizing the signal-to-noise ratio (SNR). The peptide concentration was determined by spectrophotometry, with log-log correction for light scattering. The surfactant concentration was increased step-wise by titration of concentrated surfactant stock directly into the CD cell, followed by eight inversions of the cell, with the air bubble providing the mixing turbulence. After mixing, the cell was placed into the AVIV 62 CD spectrometer (AVIV, Lakewood, N.J.). In order to approximate temperature and chemical equilibrium, the sample remained in the spectrometer 5 minutes before a reading was taken. The CD spectrum was taken using a band pass of 1 nm, a data interval of 1 nm, and a data averaging time of 10 seconds. The mean residue ellipticity is the ellipticity divided by the path length in cm times the amino acid residue concentration in decimoles/cm^3. See Methods in Enzymology, Vol 130, pp 208-269, Yang et al, "Calculation of Protein Conformation from Circular Dichroism" (1986).
The measurement procedures described above were conducted on an aqueous solution of the protein insulinotropin, with TWEEN® 20 (MW=1126 g/mol) as the surfactant, with the following modifications. The insulinotropin donor solution concentration was 0.12 mg/mL. One test was run in 10 mM sodium borate at pH 9.0 and another test in 10 mM sodium chloroacetate at pH 3.5.
Fractional changes (%δ) are defined as the difference between the reading at a given surfactant concentration (Ec) minus the reading at zero surfactant (E0), the quantity divided by the difference between the reading at saturated surfactant concentration (Es) minus the reading at zero surfactant (E0), i. e. %δ=(Ec -E0)/(Es-E0).
The measurement procedures described earlier were conducted on an aqueous solution of insulinotropin as the agent, and TWEEN® 40 (molecular weight 1282 g/mol) as the surfactant with the following changes. The insulinotropin concentration was initially 0.29 mg/mL, and 0.21 mg/mL after the final TWEEN® 40 addition and the temperature was held at 32° C. Two tests were conducted at two different concentrations of TWEEN® 40. […]

[1] = pH 3.5, 10 mM sodium chloroacetate, TWEEN 20 0
[2] = pH 3.5, 10 mM sodium chloroacetate, TWEEN 20 0.133 mM
[3] = pH 3.5, 10 mM sodium chloroacetate, TWEEN 20 0.266 mM
[4] = pH 9.0, 10 mM sodium borate, TWEEN 20 0
[5] = pH 9.0, 10 mM sodium borate, TWEEN 20 0.133 mM
[6] = pH 9.0, 10 mM sodium borate, TWEEN 20 0.266 mM
[7] = pH 9.0, 10 mM sodium borate, TWEEN 20 0.515 mM
[8] = pH 9.0, 10 mM sodium borate, TWEEN 20 1.00 mM
[9] = pH 9.0, 10 mM sodium borate, TWEEN 20 1.67 mM
[10] = pH 9.0, 10 mM sodium borate, TWEEN 20 2.56 mM
[11] = pH 9.0, 10 mM sodium borate, TWEEN 20 2.66 mM
[12] = pH 9.0, 10 mM sodium borate, TWEEN 20 4.00 mM
[13] = pH 9.0, 10 mM sodium borate, TWEEN 20 5.00 mM
[14] = pH 9.0, 10 mM sodium borate, TWEEN 20 7.04 mM
[15] = pH 9.0, 10 mM sodium borate, TWEEN 20 7.26 mM
[16] = pH 9.0, 10 mM sodium borate, TWEEN 20 9.41 mM
[17] = pH 9.0, 10 mM sodium borate, TWEEN 20 12.3 mM
[18] = pH 9.0, 10 mM sodium borate, TWEEN 20 17.7 mM
[19] = pH 9.0, 10 mM sodium borate, TWEEN 20 20.0 mM
[20] = pH 9.0, 10 mM sodium borate, TWEEN 20 22.1 mM

## Insulinotropin: the protein insulinotropin
pH 3.5, 10 mM sodium chloroacetate, DTAC 0
  Ellipticity (mean residue at 222 nm): -4268 deg-cm^2 /dmol
pH 3.5, 10 mM sodium chloroacetate, DTAC 0.83 mM
  Ellipticity (mean residue at 222 nm): -5182 deg-cm^2 /dmol
pH 3.5, 10 mM sodium chloroacetate, DTAC 1.64 mM
  Ellipticity (mean residue at 222 nm): -7285 deg-cm^2 /dmol
pH 3.5, 10 mM sodium chloroacetate, DTAC 3.23 mM
  Ellipticity (mean residue at 222 nm): -9863 deg-cm^2 /dmol
pH 3.5, 10 mM sodium chloroacetate, DTAC 5.51 mM
  Ellipticity (mean residue at 222 nm): -11672 deg-cm^2 /dmol
pH 3.5, 10 mM sodium chloroacetate, DTAC 9.10 mM
  Ellipticity (mean residue at 222 nm): -11951 deg-cm^2 /dmol
pH 3.5, 10 mM sodium chloroacetate, DTAC 13.0 mM
  Ellipticity (mean residue at 222 nm): -12219 deg-cm^2 /dmol
pH 3.5, 10 mM sodium chloroacetate, DTAC 25.0 mM
  Ellipticity (mean residue at 222 nm): -12326 deg-cm^2 /dmol
[1]
  Ellipticity (mean residue) (222 nm), raw: -4877
  Ellipticity, fractional change (% δ): 0
[2]
  Ellipticity (mean residue) (222 nm), raw: -7087
  Ellipticity, fractional change (% δ): 0.21
[3]
  Ellipticity (mean residue) (222 nm), raw: -8437
  Ellipticity, fractional change (% δ): 0.34
pH 3.5, 10 mM sodium chloroacetate, TWEEN 40 0
  Ellipticity (mean residue at 222 nm): -4621 deg-cm^2 /dmol
pH 3.5, 10 mM sodium chloroacetate, TWEEN 40 0.025 mM
  Ellipticity (mean residue at 222 nm): -4997 deg-cm^2 /dmol
pH 3.5, 10 mM sodium chloroacetate, TWEEN 40 0.092 mM
  Ellipticity (mean residue at 222 nm): -6045 deg-cm^2 /dmol
pH 3.5, 10 mM sodium chloroacetate, TWEEN 40 0.214 mM
  Ellipticity (mean residue at 222 nm): -7317 deg-cm^2 /dmol
pH 3.5, 10 mM sodium chloroacetate, TWEEN 40 0.390 mM
  Ellipticity (mean residue at 222 nm): -8554 deg-cm^2 /dmol
pH 3.5, 10 mM sodium chloroacetate, TWEEN 40 0.718 mM
  Ellipticity (mean residue at 222 nm): -10379 deg-cm^2 /dmol
pH 3.5, 10 mM sodium chloroacetate, TWEEN 40 1.21 mM
  Ellipticity (mean residue at 222 nm): -12282 deg-cm^2 /dmol
pH 3.5, 10 mM sodium chloroacetate, TWEEN 40 2.06 mM
  Ellipticity (mean residue at 222 nm): -14017 deg-cm^2 /dmol
pH 3.5, 10 mM sodium chloroacetate, TWEEN 20 0.515 mM
  Ellipticity, fractional change (% δ): 0.58
pH 3.5, 10 mM sodium chloroacetate, TWEEN 20 1.00 mM
  Ellipticity, fractional change (% δ): 0.59
pH 3.5, 10 mM sodium chloroacetate, TWEEN 20 1.67 mM
  Ellipticity, fractional change (% δ): 0.91
pH 3.5, 10 mM sodium chloroacetate, TWEEN 20 2.28 mM
  Ellipticity, fractional change (% δ): 0.96
pH 3.5, 10 mM sodium chloroacetate, TWEEN 20 3.20 mM
  Ellipticity, fractional change (% δ): 0.97
pH 3.5, 10 mM sodium chloroacetate, TWEEN 20 4.44 mM
  Ellipticity, fractional change (% δ): 1.00
[4]
  Ellipticity (mean residue) (222 nm), raw value: -5010
  Ellipticity, fractional change (% δ): 0
[5]
  Ellipticity (mean residue) (222 nm), raw value: -5641
  Ellipticity, fractional change (% δ): .11
[6]
  Ellipticity (mean residue) (222 nm), raw value: -6252
  Ellipticity, fractional change (% δ): .21
[7]
  Ellipticity (mean residue) (222 nm), raw value: -6553
  Ellipticity, fractional change (% δ): .26
[8]
  Ellipticity (mean residue) (222 nm), raw value: -7050
  Ellipticity, fractional change (% δ): .35
[9]
  Ellipticity (mean residue) (222 nm), raw value: -7857
  Ellipticity, fractional change (% δ): .49
[10]
  Ellipticity (mean residue) (222 nm), raw value: -7915
  Ellipticity, fractional change (% δ): .50
[11]
  Ellipticity (mean residue) (222 nm), raw value: -8970
  Ellipticity, fractional change (% δ): .68
[12]
  Ellipticity (mean residue) (222 nm), raw value: -9165
  Ellipticity, fractional change (% δ): .71
[13]
  Ellipticity (mean residue) (222 nm), raw value: -9124
  Ellipticity, fractional change (% δ): .70
[14]
  Ellipticity (mean residue) (222 nm), raw value: -10288
  Ellipticity, fractional change (% δ): .90
[15]
  Ellipticity (mean residue) (222 nm), raw value: -9702
  Ellipticity, fractional change (% δ): .80
[16]
  Ellipticity (mean residue) (222 nm), raw value: -10451
  Ellipticity, fractional change (% δ): .92
[17]
  Ellipticity (mean residue) (222 nm), raw value: -10540
  Ellipticity, fractional change (% δ): .94
[18]
  Ellipticity (mean residue) (222 nm), raw value: -10709
  Ellipticity, fractional change (% δ): .97
[19]
  Ellipticity (mean residue) (222 nm), raw value: -10876
  Ellipticity, fractional change (% δ): 1.00
[20]
  Ellipticity (mean residue) (222 nm), raw value: -10872
  Ellipticity, fractional change (% δ): 1.00
